The values that follow come from paper PMC13429693, “Disease-associated genetic variants can cause missense effects in tissue-specific protein isoforms” (Nature Communications, 2026).

Substrate in the data set: Cc1cc(=O)oc2cc(NC(=O)[C@@H]3CCCN3C(=O)[C@@H](N)C(C)C)ccc12
As to the kind of experiment: AMC release kinetics, allosteric sigmoidal fit. The settings on record: A549 overexpression lysate; […] sitagliptin to exclude DPP4. It is filed as cell-based, Homo sapiens. The text has this: AMC release kinetics, allosteric sigmoidal fit on DPP9-short (reference DPP9) | Enzyme kinetics for DPP9 reference and AFE isoforms

B1: DPP9-short (reference DPP9) (Homo sapiens) (protein)
chain: MATTGTPTADRGDAAATDDPAARFQVQKHSWDGLRSIIHGSRKYSGLIVNKAPHDFQFVQKTDESGPHSHRLYYLGMPYGSRENSLLYSEIPKKVRKEALLLLSWKQMLDHFQATPHHGVYSREEELLRERKRLGVFGITSYDFHSESGLFLFQASNSLFHCRDGGKNGFMVSPMKPLEIKTQCSGPRMDPKICPADPAFFSFINNSDLWVANIETGEERRLTFCHQGLSNVLDDPKSAGVATFVIQEEFDRFTGYWWCPTASWEGSEGLKTLRILYEEVDESEVEVIHVPSPALEERKTDSYRYPRTGSKNPKIALKLAEFQTDSQGKIVSTQEKELVQPFSSLFPKVEYIARAGWTRDGKYAWAMFLDRPQQWLQLVLLPPALFIPSTENEEQRLASARAVPRNVQPYVVYEEVTNVWINVHDIFYPFPQSEGEDELCFLRANECKTGFCHLYKVTAVLKSQGYDWSEPFSPGEDEFKCPIKEEIALTSGEWEVLARHGSKIWVNEETKLVYFQGTKDTPLEHHLYVVSYEAAGEIVRLTTPGFSHSCSMSQNFDMFVSHYSSVSTPPCVHVYKLSGPDDDPLHKQPRFWASMMEAASCPPDYVPPEIFHFHTRSDVRLYGMIYKPHALQPGKKHPTVLFVYGGPQVQLVNNSFKGIKYLRLNTLASLGYAVVVIDGRGSCQRGLRFEGALKNQMGQVEIEDQVEGLQFVAEKYGFIDLSRVAIHGWSYGGFLSLMGLIHKPQVFKVAIAGAPVTVWMAYDTGYTERYMDVPENNQHGYEAGSVALHVEKLPNEPNRLLILHGFLDENVHFFHTNFLVSQLIRAGKPYQLQIYPNERHSIRCPESGEHYEVTLLHFLQEYL
notes: 863 aa short isoform amplified from H358 cDNA or in-house plasmids; overexpressed in A549 cells, whole cell lysate; dimer
As for B1, the K0.5 is given as 4.411 ± 0.752 µM and the Vmax turned out to be 2.24 µmol/min/mg.
